Positions of bridges follow the written chain, without caps; N, C: chain ends. Residues, ends and D or L forms follow the SMILES beside them. No end group written: not given here.

Data set [1] can be described thus: SPR, odorranalectin and its mutants binding L-fucose. Conditions: peptide immobilized, L-fucose as analyte, NA = no binding to L-fucose, read-out: binding affinity (KD). On the procedure:
Real time detection of odorranalectin and its mutants binding to glycoproteins and L-fucose was recorded by using a Biacore 3000 [21]–[24]. The details are provided in the supplementary materials (Materials and Methods S1).
SPR Analysis. Real time detection of odorranalectin and its mutants binding to glycoproteins and L-fucose was recorded by using a Biacore 3000 [21-24]. Odorranalectin was immobilized covalently via their primary amines to carboxyl groups within a dextran layer on the sensor chip CM-5 according to the manufacturer’s specifications. After chip activation with 0.4 M 1-ethyl-3- (3-dimethylaminopropyl) carbodiimide hydrochloride and 10 mM N-hydroxysuccinimide, odorranalectin or its mutants (in 10 mM sodium acetate buffer, pH 4.0) at a concentration of 100 μg/ml was passed through the flow cells at a rate of 5 μl/min. After immobilization, the chip was capped by exposure to 1 M ethanolamine (pH 8.5).
All analyses were performed at a flow rate of 30 μl/min. Before loading of analytes, the chip was equilibrated with 10 mM HEPES-buffered saline containing 3 mM EDTA and 0.005% surfactant P-20, pH 7.4 (HBS-EP). […]
Association and dissociation rate constants (ka and kd) were calculated by using BIA evaluation 4.0 software (Biacore AB, Sweden). The affinity constant (KD) was calculated from the ka and kd. […]
(In general: Surface plasmon resonance follows binding to a sensor surface in real time, without labels.)

The next data set concerns human erythrocytes. The data set can be described thus: Erythrocytes hemagglutination. The class given is cell-based. Conditions: blood group not named.
Data set [2] is described as follows: Stability of 125I-odorranalectin in mice plasma in vitro. To be noted: mice plasma 100% (v/v) and 50% in PBS pH 7.4, 5 µCi, 37 °C, sampled 0-5 h; radiochemical purity by silica gel paper chromatography and HPLC with radioactive detector. The data set is classed as in vitro ADME. On the procedure: In order to evaluate the stability of ^125I- odorranalectin in vitro, a degradation experiment of ^125I-odorranalectin in mice plasma was performed. The details are provided in the supplementary materials (Materials and Methods S1).
Stability of ^125I-odorranalectin in vitro. In order to evaluate the stability of ^125I- odorranalectin in vitro, a degradation experiment of ^125I-odorranalectin in mice plasma was performed. Briefly, 5 µCi ^125I-odorranalectin (about 10 µl) was added to 790 µl plasma (100%, v/v) freshly prepared and 400 µL plasma (50%) admixed with 390 µl PBS (pH 7.4) in two 1.5-ml centrifuge tubes, respectively, which maintained at 37 °C in a rolling water-bath incubator. Then at each time point (0, 1, 2, 3, 4 and 5 h), a glass microcap was used to take samples for silica gel paper chromatography (SGPC) analysis and high-performance liquid chromatography (HPLC) for calculating the radiochemical purity of ^125I-odorranalectin. In detail, the developing agent of SGPC was methanol: water = 85:15 (v/v); After spotted and the solvent reached the frontier, the silica gel paper strip was dried and cut to ten equations (Fig. S3 and Table S7), and then set in 10 tubes, following determined radiocounting of each piece in a SN-695 Intellectual Radio-immunity γ Measurement (Shanghai Institute of Nuclear Research Ri Huan Instrument Factory, China), respectively. […]

A short description of data set [3]: Tissue distribution of 125I-odorranalectin in vivo. Details: species or system KM mice. To be noted: 400 µCi·kg^-1, mice, 5-300 min, Mean ± SD, n=3. How it is done:
Sixty-three female KM mice (18∼22 g) were grouped randomly into three groups receiving oral, intravenous and intranasal administration of ^125I-odorranalectin at equal radiation dose (400 µCi·kg^−1), respectively. The detail procedures are provided in the supplementary materials (Materials and Methods S1).
Each experiment was carried out in triplicate. Values are given as means±SD. All the concentration data were plotted directly as radiocounting-time curves of the blood and tissues, and the area under the curve (AUC0→t) was calculated by the trapezoidal rule. The statistical differences between per oral or intranasal administrations and intravenous administration were assessed using student's t test and P<0.05 as statistical significance.
Tissue distribution of ^125I-odorranalectin in vivo. Sixty-three female KM mice (18~22 g) were grouped randomly to three groups receiving oral, intravenous and intranasal administration at equal radiation dose (400 µCi·kg^-1), respectively. The procedure for intranasal administration was performed gently and slowly so as to allow the mice to inhale all of the preparations (each nostril 10 µl). At different time intervals (5, 15, 30, 60, 120, 180 and 300 min) following administration, blood sample was collected via eye puncture; subsequently, the mice were humanly sacrificed, and tissues such as heart, liver, spleen, lung, stomach (content removed), kidney and brain were harvested and stuffed into a special tube after the remnant blood was blotted by tissue paper, following weighing, respectively. Finally, the radiocounting of each tissue was determined in a SN-695 Intellectual Radio-immunity γ Measurement to evaluate odorranalectin intake.
Data analysis. Each experiment was carried out in triplicate. Values are given as means ± SD. All the concentration data were plotted directly as radiocounting-time curves of the blood and tissues, and the area under curve (AUC0→t) was calculated by the trapezoidal rule. The statistical differences between per oral or intranasal administrations and intravenous administration were assessed using student’s t test and P< 0.05 as statistical significance.

In general, Kd refers to the concentration at which binding is half-saturated. In the case of “YASPGGFRYPNGVLACT [Odorranalectin T17/G17]”, the Kd in data set [1] was 8.2 mM.

For the compound `CC(C)C[C@@H]1NC(=O)[C@H](C(C)C)NC(=O)CNC(=O)[C@H](CC(N)=O)NC(=O)[C@@H]2CCCN2C(=O)[C@H](Cc2ccc(O)cc2)NC(=O)[C@H](CCCNC(=N)N)NC(=O)[C@H](Cc2ccccc2)NC(=O)[C@@H](NC(=O)[C@H](CCCCN)NC(=O)[C@@H]2CCCN2C(=O)[C@H](CO)NC(=O)[C@H](C)NC(=O)[C@@H](N)Cc2ccc(O)cc2)CSSC[C@@H](C(=O)N[C@H](C(=O)O)[C@@H](C)O)NC(=O)[C@H](C)NC1=O` [odorranalectin] (HELM PEPTIDE1{Y.A.S.P.K.C.F.R.Y.P.N.G.V.L.A.C.T}$PEPTIDE1,PEPTIDE1,6:R3-16:R3$$$V2.0), the “minimum concentration (MIC) to agglutinate intact human erythrocytes” value in the data set on human erythrocytes is 0.75 µg/mL. Moreover, the “Time of stability in mice plasma” value in data set [2] was “more than 5 hours”.

Consider “^125I-odorranalectin: odorranalectin labeled by 125I with iodogen method (YASPKCFRYPNGVLACT; disulfide 6-16; ends not checked; also: 125I on a tyrosine, which one is not given here)”, for which the “Time of stability in mice plasma” value in data set [2] is given as “at least 5 hours”. In data set [3] (in (intranasal)), the “AUC Blood” value was 6.77±3.05 *10^7 CPM·min, the “AUC Brain” value is reported as 0.36±0.15 *10^7 CPM·min, the “AUC Heart” value is listed as 2.88±1.16 *10^7 CPM·min and the “AUC Kideny” value is 5.17±2.10 *10^7 CPM·min. For the same compound, in data set [3] (in (intranasal)), the “AUC Liver” value is 3.53±1.50 *10^7 CPM·min, the “AUC Lung” value is on record as 12.50±3.77 *10^7 CPM·min, the “AUC Spleen” value is given as 4.48±1.86 *10^7 CPM·min and the “AUC Stomach” value is reported as 125.61±44.28 *10^7 CPM·min. Moreover, in data set [3] (iv), the “AUC Blood” value was 5.41±1.11 *10^7 CPM·min, the “AUC Brain” value is listed as 0.46±0.047 *10^7 CPM·min, the “AUC Heart” value is 3.37±0.51 *10^7 CPM·min and the “AUC Kideny” value is given as 8.47±1.41 *10^7 CPM·min. Besides, in data set [3] (iv), the “AUC Liver” value is given as 98.51±6.22 *10^7 CPM·min, the “AUC Lung” value is listed as 246.41±62.56 *10^7 CPM·min, the “AUC Spleen” value is recorded as 64.82±8.61 *10^7 CPM·min and the “AUC Stomach” value is on record as 20.90±3.09 *10^7 CPM·min. Further, in data set [3] (po), the “AUC Blood” value is 4.89±0.69 *10^7 CPM·min, the “AUC Brain” value is 0.25±0.024 *10^7 CPM·min, the “AUC Heart” value is 1.99±0.24 *10^7 CPM·min and the “AUC Kideny” value was 3.84±0.76 *10^7 CPM·min. In data set [3] (po), the “AUC Liver” value is 2.42±0.29 *10^7 CPM·min, the “AUC Lung” value is 4.02±0.51 *10^7 CPM·min, the “AUC Spleen” value is on record as 3.60±0.35 *10^7 CPM·min and the “AUC Stomach” value is 126.64±32.27 *10^7 CPM·min.

These data come from PMC2440032, “Odorranalectin Is a Small Peptide Lectin with Potential for Drug Delivery and Targeting” (PLoS ONE, 2008).
